No end group written: not given here.
T1: SIRT2-treated p300_(BRPHZ) (catalytic core BD-RING-PHD-HAT-ZZ, aa 1035-1720 of p300), hypoacetylated (human, UniProt Q09472 1035-1720, on average 4 acetyl-lysines outside the AIL left after SIRT2 treatment (sites not given))
T1 construct: human p300, BD-RING-PHD-HAT-ZZ region (BRPHZ), amino acids 1035-1720; Heterogeneously acetylated; Vector pGEX-6P-1; also called SIRT2-deacetylated p300BRPHZ; deacetylated p300
T1 sequence (looked up): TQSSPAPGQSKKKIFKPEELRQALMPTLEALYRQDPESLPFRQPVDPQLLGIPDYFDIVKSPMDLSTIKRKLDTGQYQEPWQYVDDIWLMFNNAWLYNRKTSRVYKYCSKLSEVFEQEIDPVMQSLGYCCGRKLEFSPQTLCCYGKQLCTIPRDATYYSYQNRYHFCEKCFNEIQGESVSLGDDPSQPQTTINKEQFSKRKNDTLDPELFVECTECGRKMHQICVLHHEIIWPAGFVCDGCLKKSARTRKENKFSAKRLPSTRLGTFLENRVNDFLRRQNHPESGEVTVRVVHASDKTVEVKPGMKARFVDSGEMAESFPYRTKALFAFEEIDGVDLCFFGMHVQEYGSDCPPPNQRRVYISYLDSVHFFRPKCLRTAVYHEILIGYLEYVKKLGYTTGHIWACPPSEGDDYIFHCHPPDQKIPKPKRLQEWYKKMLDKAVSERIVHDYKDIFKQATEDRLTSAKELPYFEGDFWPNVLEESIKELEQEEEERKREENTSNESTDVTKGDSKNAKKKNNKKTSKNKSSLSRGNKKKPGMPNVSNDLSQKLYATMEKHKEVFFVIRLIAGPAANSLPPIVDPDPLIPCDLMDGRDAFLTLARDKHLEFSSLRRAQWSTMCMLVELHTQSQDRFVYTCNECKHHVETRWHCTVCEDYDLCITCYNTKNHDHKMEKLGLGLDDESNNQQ

B1: fluorescein (FAM)-labeled histone H3 tail peptide (residues 1-12 of H3) (peptide, UniProt P68431 2-13, looked up)
peptide: ARTKQTARKSTG
modifications: also: fluorescein (FAM) label, position not given here
notes: histone H3 tail, residues 1-12, unmodified; also called FAM-H3; FAM-labeled H3_(1-12) peptide

Tests used:
[1] = test system: p300 BRPHZ, SIRT2-deacetylated (~4 Kac, outside the AIL) (human); experiment: EMSA; settings: EMSA: 20 mM Tris-HCl pH 7.5, 50 mM NaCl (75 mM for NCP), 2 mM DTT, 5 min; 5% PAGE in 0.2x TBE (DNA) or 0.2x TB (NCP), 100 V, on ice; SYBR Gold
[2] = molecular target: T1, SIRT2-treated p300_(BRPHZ) (catalytic …); experiment: recruitment of a labelled peptide into condensates (confocal microscopy); 13 uM SIRT2-treated p300 condensates (PEG-induced) mixed with 6 uM FAM-labeled H3 tail (aa 1-12); FAM alone as control; settings: both partners purified

| Molecule | Kd [1] [nM] | binding result [2] |
| --- | --- | --- |
| 601 DNA 147 bp | 300 |  |
| B1 |  | binds |
